{"source": "paper PMC12661054", "about": "“The CIP2A-TOPBP1 axis facilitates mitotic DNA repair via MiDAS and MMEJ” (Nature Communications, 2025)", "target": "T1, GST-TOPBP1(BRCT0-2 1-290) WT (human, UniProt Q92547 1-290)", "T1 construct": "TOPBP1, human, residues 1-290 (BRCT0-2); expressed from pGEX-6P-1, eluted with glutathione, no cleavage described; also called TOPBP1 BRCT0-1-2; TOPBP1 BRCT 0-1-2 WT; source: E. coli BL21(DE3), purified (HiTrap GST, Superdex 200)", "test": "fluorescence polarisation; 100 nM fluorescein-labelled SLX4 peptide, increasing concentrations of TOPBP1 BRCT fragment; room temperature; 25 mM HEPES pH 7.5, 150 mM NaCl, 1 mM EDTA, 0.25 mM TCEP, 0.002% Tween 20; single site with non-specific component", "conditions": "both partners purified", "note": "Square brackets hold non-standard residues; d marks the D form. Ends that are not written are not given here. fluorescein = fluorescein label on the N-terminus; pT = C[C@@H](OP(=O)(O)O)[C@H](N)C(=O)O", "data": [{"binder": "fluorescein-GYGTSWLVPA[pT]PLASRSR (also: phosphothreonine at Thr1260 (position 4 or 11), residues before the SLX4 stretch, not SLX4; SLX4, human, amino acids 1253-1267, pT1260; also called fluorescein tagged SLX4 pT1260-containing peptide; pThr1260 SLX4 peptide; source: synthetic peptide)", "note": "[Flu-SLX4_pT1260]", "values": [{"measurement": "binding result", "result": "binds"}]}]}
